From patent publication US20260250352A1
Where two headings read alike, the source gives them in different places.

Columns and labels:
[1] = target: recombinant human BAFF (human) (UniProt Q9Y275)
[2] = target: recombinant human APRIL (human) (UniProt O75888); assay: cell-based or functional assay
[3] = target: recombinant human BAFF (human) (UniProt Q9Y275); assay: cell-based or functional assay
[4] = target: recombinant mouse BAFF (mouse) (UniProt Q9WU72)
[5] = target: recombinant mouse APRIL (mouse) (UniProt Q9D777)
BAFF 60-mer (human) = BAFF 60-mer (human) (UniProt Q9Y275); assay: cell-based or functional assay
[6] = target: single chain APRIL-BAFF-BAFF heterotrimer (ABB) (human) (UniProt O75888); assay: cell-based or functional assay
[7] = target: single chain BAFF-APRIL-APRIL heterotrimer (BAA) (human) (UniProt Q9Y275); assay: cell-based or functional assay
[8] = target: APRIL + BAFF in combination (human); assay: cell-based or functional assay
[9] = target: recombinant mouse BAFF (mouse) (UniProt Q9WU72); assay: cell-based or functional assay
[10] = target: single chain BAFF homotrimer (BAFF-BAFF-BAFF) (human) (UniProt Q9Y275); assay: cell-based or functional assay
[11] = target: recombinant human APRIL (human) (UniProt O75888); assay: cell-based or functional assay; remark: listed apart in the source
[12] = target: recombinant mouse APRIL (mouse) (UniProt Q9D777); assay: cell-based or functional assay
[13] = target: recombinant human BAFF (human) (UniProt Q9Y275); assay: cell-based or functional assay; remark: listed apart in the source
[14] = target: recombinant human BAFF (human) (UniProt Q9Y275); remark: listed apart in the source
[15] = target: recombinant human APRIL (human) (UniProt O75888)
[16] = target: recombinant human BAFF (human) (UniProt Q9Y275); remark: listed apart in the source

Sequence of Atacicept (WT TACI-Fc with the atacicept sequence) (Fc fusion) (chain): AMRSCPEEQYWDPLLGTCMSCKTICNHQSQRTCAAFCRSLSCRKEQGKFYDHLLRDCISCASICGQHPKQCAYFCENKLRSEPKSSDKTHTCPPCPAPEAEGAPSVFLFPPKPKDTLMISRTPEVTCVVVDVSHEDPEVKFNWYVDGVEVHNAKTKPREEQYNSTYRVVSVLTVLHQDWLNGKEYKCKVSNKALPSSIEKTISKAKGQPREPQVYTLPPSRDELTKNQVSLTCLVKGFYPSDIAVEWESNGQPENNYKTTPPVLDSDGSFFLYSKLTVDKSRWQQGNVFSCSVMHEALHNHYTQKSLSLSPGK
Sequence of 13 TACI CRD2-Fc (Fc fusion) (chain): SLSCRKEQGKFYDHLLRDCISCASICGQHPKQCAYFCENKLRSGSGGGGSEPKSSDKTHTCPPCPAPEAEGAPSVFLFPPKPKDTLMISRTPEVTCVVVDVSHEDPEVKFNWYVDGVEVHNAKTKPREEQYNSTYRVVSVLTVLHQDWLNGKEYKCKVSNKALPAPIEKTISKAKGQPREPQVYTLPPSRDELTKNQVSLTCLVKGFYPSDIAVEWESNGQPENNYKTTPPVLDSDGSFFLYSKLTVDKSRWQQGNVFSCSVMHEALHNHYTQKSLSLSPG
Sequence of recombinant mouse BAFF (mouse) (Q9WU72 127-309 limits assumed): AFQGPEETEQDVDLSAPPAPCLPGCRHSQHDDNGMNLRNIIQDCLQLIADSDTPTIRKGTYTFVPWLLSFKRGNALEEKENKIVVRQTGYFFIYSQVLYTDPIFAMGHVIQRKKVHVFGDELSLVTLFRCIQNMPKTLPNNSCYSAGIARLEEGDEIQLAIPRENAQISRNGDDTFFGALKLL
Sequence of TACI WT 13 GSG4S (74) Fc 73 (G4S)4 (84) TACI WT 13 (Fc fusion) (chain): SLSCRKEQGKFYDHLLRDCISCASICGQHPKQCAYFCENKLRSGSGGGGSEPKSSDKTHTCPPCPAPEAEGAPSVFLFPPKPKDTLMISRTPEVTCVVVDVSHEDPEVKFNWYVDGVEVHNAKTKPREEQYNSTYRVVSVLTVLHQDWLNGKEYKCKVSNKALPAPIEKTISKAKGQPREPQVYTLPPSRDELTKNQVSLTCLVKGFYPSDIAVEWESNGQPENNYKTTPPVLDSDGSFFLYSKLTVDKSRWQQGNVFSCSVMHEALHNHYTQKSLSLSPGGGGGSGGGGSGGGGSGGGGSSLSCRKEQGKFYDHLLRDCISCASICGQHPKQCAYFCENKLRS
Sequence of TACI 13-118-Fc (Fc fusion) (chain): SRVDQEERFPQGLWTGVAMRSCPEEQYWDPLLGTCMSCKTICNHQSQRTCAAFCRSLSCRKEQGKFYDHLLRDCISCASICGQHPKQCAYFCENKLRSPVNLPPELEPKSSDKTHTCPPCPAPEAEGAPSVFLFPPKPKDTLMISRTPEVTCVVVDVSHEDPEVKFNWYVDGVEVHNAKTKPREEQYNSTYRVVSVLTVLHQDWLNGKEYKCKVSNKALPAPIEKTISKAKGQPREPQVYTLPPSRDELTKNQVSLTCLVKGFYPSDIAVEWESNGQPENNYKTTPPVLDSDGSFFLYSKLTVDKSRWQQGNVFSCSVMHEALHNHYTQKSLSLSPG
Sequence of TACI 30-110-Fc (Fc fusion) (chain): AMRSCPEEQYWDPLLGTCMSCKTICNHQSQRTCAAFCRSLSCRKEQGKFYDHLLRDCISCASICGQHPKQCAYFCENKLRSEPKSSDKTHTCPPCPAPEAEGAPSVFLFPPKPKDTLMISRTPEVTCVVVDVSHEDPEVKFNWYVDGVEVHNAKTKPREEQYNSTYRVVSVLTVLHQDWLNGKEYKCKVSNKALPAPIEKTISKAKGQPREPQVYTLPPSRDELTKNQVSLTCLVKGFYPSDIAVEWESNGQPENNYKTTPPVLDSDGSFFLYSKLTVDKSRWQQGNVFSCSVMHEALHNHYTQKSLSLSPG
Sequence of TACI WT 13 (G4S)4 (84) TACI WT 13 GSG4S (74) Fc 73 (Fc fusion) (chain): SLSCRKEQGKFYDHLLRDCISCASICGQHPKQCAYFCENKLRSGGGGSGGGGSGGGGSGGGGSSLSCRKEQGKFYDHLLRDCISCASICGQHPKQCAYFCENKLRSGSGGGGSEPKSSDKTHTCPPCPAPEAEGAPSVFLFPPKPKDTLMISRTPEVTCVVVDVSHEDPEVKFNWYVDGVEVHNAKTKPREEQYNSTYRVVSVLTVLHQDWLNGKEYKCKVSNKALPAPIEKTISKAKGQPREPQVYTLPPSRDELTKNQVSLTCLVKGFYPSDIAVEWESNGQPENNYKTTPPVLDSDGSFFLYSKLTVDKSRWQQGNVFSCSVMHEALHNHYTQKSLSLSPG
Sequence of 29 TACI CRD2-Fc (Fc fusion) (chain): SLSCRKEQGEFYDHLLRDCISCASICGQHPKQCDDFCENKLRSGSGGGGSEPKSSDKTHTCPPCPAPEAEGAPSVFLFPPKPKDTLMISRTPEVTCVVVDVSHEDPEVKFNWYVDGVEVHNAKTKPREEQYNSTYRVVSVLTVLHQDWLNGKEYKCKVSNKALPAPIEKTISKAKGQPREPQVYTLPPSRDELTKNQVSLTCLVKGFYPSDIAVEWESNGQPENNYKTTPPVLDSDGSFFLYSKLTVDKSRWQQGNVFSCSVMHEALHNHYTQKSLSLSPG
Sequence of recombinant mouse APRIL (mouse) (Q9D777 96-241 limits assumed): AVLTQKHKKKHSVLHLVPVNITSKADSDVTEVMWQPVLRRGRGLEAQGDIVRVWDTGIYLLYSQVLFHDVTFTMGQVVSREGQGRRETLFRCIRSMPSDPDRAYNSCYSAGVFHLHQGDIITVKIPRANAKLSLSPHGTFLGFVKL
Sequence of 27 TACI CRD2-Fc (Fc fusion) (chain): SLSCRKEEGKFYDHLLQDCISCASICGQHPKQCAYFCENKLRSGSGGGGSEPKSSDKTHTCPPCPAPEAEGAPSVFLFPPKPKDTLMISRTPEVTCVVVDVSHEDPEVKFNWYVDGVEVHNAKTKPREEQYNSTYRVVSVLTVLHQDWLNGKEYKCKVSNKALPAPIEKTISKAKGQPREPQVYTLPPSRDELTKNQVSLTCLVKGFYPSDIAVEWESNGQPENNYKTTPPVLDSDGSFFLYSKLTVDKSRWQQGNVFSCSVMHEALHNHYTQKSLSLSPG
Sequence of WT TACI 13-118-Fc based on the published telitacicept sequence (Fc fusion) (chain): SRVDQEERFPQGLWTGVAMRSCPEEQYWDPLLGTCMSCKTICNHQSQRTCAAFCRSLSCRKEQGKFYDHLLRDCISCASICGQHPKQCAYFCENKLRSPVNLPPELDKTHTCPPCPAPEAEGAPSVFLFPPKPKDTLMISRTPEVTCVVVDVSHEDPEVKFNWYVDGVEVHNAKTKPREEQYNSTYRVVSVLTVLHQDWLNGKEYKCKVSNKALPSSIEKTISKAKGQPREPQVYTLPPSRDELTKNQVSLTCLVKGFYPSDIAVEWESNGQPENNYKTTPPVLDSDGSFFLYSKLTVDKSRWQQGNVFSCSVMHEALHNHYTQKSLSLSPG

Row | Substance | IC50, Jurkat/NF-kB/TACI reporter [2] [nM] | IC50 relative to WT TACI (68-110)-Fc (Δ WT) [2] | IC50, Jurkat/NF-kB/TACI reporter [3] [nM] | IC50 relative to WT TACI (68-110)-Fc (Δ WT) [3] | further results
1 | 13 TACI CRD2-Fc (Fc fusion) | 12.3 | 1 | 1.85 | 1 | IC50 (read off the curve), human BAFF, NF-κB luciferase reporter, Jurkat/NF-κB/TACI cells [1]: 4 nM; IC50 (read off the curve), mouse BAFF, NF-κB luciferase reporter, Jurkat/NF-κB/TACI cells [4]: 5 nM; IC50 (read off the curve), mouse APRIL, NF-κB luciferase reporter, Jurkat/NF-κB/TACI cells [5]: 0.7 nM; IC50, TACI/Jurkat/NF-kB reporter (BAFF 60-mer (human)): 18.7 nM; IC50, TACI/Jurkat/NF-kB reporter [6]: 0.179 nM; IC50, TACI/Jurkat/NF-kB reporter [7]: < 0.016 nM; IC50, TACI/Jurkat/NF-kB reporter [8]: 12.9 nM; IC50, TACI/Jurkat/NF-kB reporter [9]: 2.2 nM; IC50, TACI/Jurkat/NF-kB reporter [10]: 7.46 nM; IC50, Jurkat/NF-kB/TACI reporter [11]: 369 nM; IC50, TACI/Jurkat/NF-kB reporter [11]: 8.5 nM; IC50 relative to TACI 30-110-Fc [11]: 0.1; IC50, TACI/Jurkat/NF-kB reporter [12]: 2.9 nM; IC50, Jurkat/NF-kB/TACI reporter [13]: 1330 nM; IC50, TACI/Jurkat/NF-kB reporter [13]: 3 nM; IC50 relative to TACI 30-110-Fc [13]: 0.23; IC50 (read off the curve), human BAFF, NF-κB luciferase reporter, TACI/Jurkat/NF-κB cells [14]: 3 nM; IC50 (read off the curve), human APRIL, NF-κB luciferase reporter, Jurkat/TACI/NF-κB cells [15]: 5 nM; IC50 (read off the curve), human BAFF, NF-κB luciferase reporter, Jurkat/TACI/NF-κB cells [16]: 2 nM
2 | 23 TACI CRD2-Fc (A101D) (Fc fusion) | 8.38 | 0.68 | 1.83 | 0.99 | –
3 | 24 TACI CRD2-Fc (K77E, R84Q) (Fc fusion) | 4.26 | 0.35 | 2.26 | 1.22 | –
4 | 25 TACI CRD2-Fc (K77E, A101D) (Fc fusion) | 2.04 | 0.17 | 1.96 | 1.06 | –
5 | 27 TACI CRD2-Fc (Fc fusion) | 11.8 | 0.96 | 1.46 | 0.79 | IC50, Jurkat/NF-kB/TACI reporter [11]: 262 nM; IC50 relative to TACI 30-110-Fc [11]: 0.07; IC50, Jurkat/NF-kB/TACI reporter [13]: 1390 nM; IC50 relative to TACI 30-110-Fc [13]: 0.24
6 | 29 TACI CRD2-Fc (Fc fusion) | 2.91 | 0.24 | 1.18 | 0.64 | IC50, Jurkat/NF-kB/TACI reporter [11]: 339 nM; IC50 relative to TACI 30-110-Fc [11]: 0.09; IC50 relative to TACI 30-110-Fc [13]: 0.23
7 | 30 TACI CRD2-Fc (R84Q) (Fc fusion) | 0.566 | 0.05 | 5.49 | 2.96 | IC50 (read off the curve), human BAFF, NF-κB luciferase reporter, Jurkat/TACI/NF-κB cells [16]: 1 nM
8 | 32 TACI CRD2-Fc (K77E) (Fc fusion) | 0.159 | 0.01 | 1.54 | 0.83 | –
9 | 177 TACI CRD2-Fc (Q75E) (Fc fusion) | 1.94 | 0.16 | 1.46 | 0.79 | –
10 | 178 TACI CRD2-Fc (Q75E, K77E) (Fc fusion) | 10.7 | 0.87 | 1.89 | 1.02 | –
11 | 179 TACI CRD2-Fc (Q75E, F78Y) (Fc fusion) | 13.4 | 1.09 | 1.79 | 0.97 | –
12 | 180 TACI CRD2-Fc (Q75E, A101D) (Fc fusion) | 20 | 1.62 | 2.36 | 1.27 | –
13 | 181 TACI CRD2-Fc (Q75E, Y102D) (Fc fusion) | 11.1 | 0.9 | 2.15 | 1.16 | –
14 | 182 TACI CRD2-Fc (K77E, F78Y, R84Q) (Fc fusion) | 10.1 | 0.82 | 2.21 | 1.19 | –
15 | 183 TACI CRD2-Fc (F78Y) (Fc fusion) | 0.176 | 0.01 | 1.64 | 0.88 | –
16 | 184 TACI CRD2-Fc (F78Y, R84Q) (Fc fusion) | 2.62 | 0.21 | 2.26 | 1.22 | –

Row | Substance | IC50, Jurkat/NF-kB/TACI reporter [2] [nM] | IC50 relative to WT TACI (68-110)-Fc (Δ WT) [2] | IC50, Jurkat/NF-kB/TACI reporter [3] [nM] | IC50 relative to WT TACI (68-110)-Fc (Δ WT) [3] | further results
17 | 185 TACI CRD2-Fc (F78Y, A101D) (Fc fusion) | 2.02 | 0.16 | 1.85 | 1 | –
18 | 186 TACI CRD2-Fc (F78Y, Y102D) (Fc fusion) | 8.49 | 0.69 | 1.96 | 1.06 | –
19 | 187 TACI CRD2-Fc (R84Q, A101D) (Fc fusion) | 11.2 | 0.91 | 2.35 | 1.27 | –
20 | 188 TACI CRD2-Fc (R84Q, Y102D) (Fc fusion) | 12.3 | 1 | 1.86 | 1.01 | –
21 | 189 TACI CRD2-Fc (A101D, Y102D) (Fc fusion) | 33.6 | 2.72 | 1.95 | 1.05 | –
22 | 190 TACI CRD2-Fc (Y102D) (Fc fusion) | 11.6 | 0.94 | 1.86 | 1 | –
23 | 191 TACI CRD2-Fc (K77E, F78Y) (Fc fusion) | 10.1 | 0.82 | 1.97 | 1.06 | –
24 | 192 TACI CRD2-Fc (K77E, Y102D) (Fc fusion) | 0.891 | 0.07 | 2.18 | 1.17 | –
25 | Atacicept (WT TACI-Fc with the atacicept sequence) (Fc fusion) | – | – | 7.74 | 4.17 | IC50, Jurkat/NF-kB/TACI reporter [8]: 7.72 nM; IC50, TACI/Jurkat/NF-kB reporter [8]: > 200 nM; IC50, TACI/Jurkat/NF-kB reporter [9]: 9 nM; IC50, Jurkat/NF-kB/TACI reporter [11]: 9.26 nM; IC50, TACI/Jurkat/NF-kB reporter [11]: > 200 nM; IC50, TACI/Jurkat/NF-kB reporter [12]: 18 nM; IC50, Jurkat/NF-kB/TACI reporter [13]: 8.29 nM; IC50, TACI/Jurkat/NF-kB reporter [13]: 20.8 nM
26 | BAFF-R ECD (receptor) | – | – | 53.2 | 28.7 | –
27 | TACI 13-118, with K77E/F78Y/Y102D, Fc fusion | 13.2 | 1.07 | 1.99 | 1.07 | IC50, Jurkat/NF-kB/TACI reporter [11]: 848 nM; IC50 relative to TACI 30-110 [11]: 0.2; IC50, Jurkat/NF-kB/TACI reporter [13]: 2050 nM; IC50 relative to TACI 30-110 [13]: 0.46
28 | TACI 13-118-Fc (Fc fusion) | – | – | 7.91 | 4.26 | IC50, Jurkat/NF-kB/TACI reporter [11]: 7810 nM; IC50 relative to TACI 30-110 [11]: 1.81; IC50 relative to TACI 30-110-Fc [11]: 2.37; IC50, Jurkat/NF-kB/TACI reporter [13]: 7700 nM; IC50 relative to TACI 30-110 [13]: 1.88; IC50 relative to TACI 30-110-Fc [13]: 1.33; IC50 (read off the curve), human BAFF, NF-κB luciferase reporter, TACI/Jurkat/NF-κB cells [14]: 20 nM
29 | TACI 30-110-Fc (Fc fusion) | – | – | – | – | IC50, TACI/Jurkat/NF-kB reporter (BAFF 60-mer (human)): > 100 nM; IC50, Jurkat/NF-kB/TACI reporter [11]: 4320 nM; IC50 relative to TACI 30-110 [11]: 1; IC50 relative to TACI 30-110-Fc [11]: 1; IC50, Jurkat/NF-kB/TACI reporter [13]: 4490 nM; IC50 relative to TACI 30-110 [13]: 1; IC50 relative to TACI 30-110-Fc [13]: 1; IC50 (read off the curve), human BAFF, NF-κB luciferase reporter, TACI/Jurkat/NF-κB cells [14]: 20 nM
30 | TACI WT 13 (G4S)4 (84) TACI WT 13 GSG4S (74) Fc 73 (Fc fusion) | – | – | – | – | IC50, Jurkat/NF-kB/TACI reporter (BAFF 60-mer (human)): 4.33 nM; IC50, Jurkat/NF-kB/TACI reporter [11]: 34.6 nM; IC50, Jurkat/NF-kB/TACI reporter [13]: 3.29 nM
31 | TACI WT 13 GSG4S (74) Fc 73 (G4S)4 (84) TACI WT 13 (Fc fusion) | – | – | – | – | IC50, Jurkat/NF-kB/TACI reporter (BAFF 60-mer (human)): 2.58 nM; IC50, Jurkat/NF-kB/TACI reporter [11]: 11.9 nM; IC50, Jurkat/NF-kB/TACI reporter [13]: 1.04 nM
32 | WT TACI 13-118-Fc based on the published telitacicept sequence (Fc fusion) | – | – | – | – | IC50, TACI/Jurkat/NF-kB reporter [8]: > 200 nM
